Patent US11214624 (PRODA BIOTECH, dated 2022)

T1: kinesin (endogenous, in SW480 cell extracts) (UniProt P33176 2-963)
T1 construct: also called heavy chain of kinesin-1
T1 sequence (looked up): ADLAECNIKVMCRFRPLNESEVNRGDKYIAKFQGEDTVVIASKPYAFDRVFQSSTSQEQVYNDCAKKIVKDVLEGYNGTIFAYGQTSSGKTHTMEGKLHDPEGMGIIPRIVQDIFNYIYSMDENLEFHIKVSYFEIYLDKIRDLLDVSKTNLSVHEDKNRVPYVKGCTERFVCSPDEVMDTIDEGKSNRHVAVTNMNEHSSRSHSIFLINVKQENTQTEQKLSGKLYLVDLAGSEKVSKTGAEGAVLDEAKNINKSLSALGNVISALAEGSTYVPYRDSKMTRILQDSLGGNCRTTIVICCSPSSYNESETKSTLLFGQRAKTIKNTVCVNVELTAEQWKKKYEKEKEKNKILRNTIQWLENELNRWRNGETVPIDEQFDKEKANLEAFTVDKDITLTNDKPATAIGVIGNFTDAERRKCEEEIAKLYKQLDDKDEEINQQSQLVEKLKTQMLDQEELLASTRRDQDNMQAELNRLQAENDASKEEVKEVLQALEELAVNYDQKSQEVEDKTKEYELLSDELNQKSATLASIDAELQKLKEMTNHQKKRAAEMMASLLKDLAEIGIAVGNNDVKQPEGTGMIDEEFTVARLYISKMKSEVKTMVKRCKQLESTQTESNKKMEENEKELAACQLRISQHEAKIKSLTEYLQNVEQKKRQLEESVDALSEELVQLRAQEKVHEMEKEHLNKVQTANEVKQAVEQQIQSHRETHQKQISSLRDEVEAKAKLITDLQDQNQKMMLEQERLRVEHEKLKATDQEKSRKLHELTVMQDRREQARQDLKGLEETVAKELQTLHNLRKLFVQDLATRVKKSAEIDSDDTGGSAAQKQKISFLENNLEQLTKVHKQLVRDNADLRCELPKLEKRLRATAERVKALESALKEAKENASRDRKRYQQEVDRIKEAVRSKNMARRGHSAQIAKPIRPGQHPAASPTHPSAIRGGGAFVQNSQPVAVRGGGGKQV


Legend:
[1] = target: T2, dynein (endogenous, in SW480 cell extracts) (UniProt O14576 2-645); assay: co-immunoprecipitation in extracts of scratch-wounded SW480 cells
T2 construct: Multi-subunit motor; also called Dynein intermediate 1

[2] = target: T1, kinesin (endogenous, in SW480 cell …); assay: as above

T2 sequence (O14576 2-645): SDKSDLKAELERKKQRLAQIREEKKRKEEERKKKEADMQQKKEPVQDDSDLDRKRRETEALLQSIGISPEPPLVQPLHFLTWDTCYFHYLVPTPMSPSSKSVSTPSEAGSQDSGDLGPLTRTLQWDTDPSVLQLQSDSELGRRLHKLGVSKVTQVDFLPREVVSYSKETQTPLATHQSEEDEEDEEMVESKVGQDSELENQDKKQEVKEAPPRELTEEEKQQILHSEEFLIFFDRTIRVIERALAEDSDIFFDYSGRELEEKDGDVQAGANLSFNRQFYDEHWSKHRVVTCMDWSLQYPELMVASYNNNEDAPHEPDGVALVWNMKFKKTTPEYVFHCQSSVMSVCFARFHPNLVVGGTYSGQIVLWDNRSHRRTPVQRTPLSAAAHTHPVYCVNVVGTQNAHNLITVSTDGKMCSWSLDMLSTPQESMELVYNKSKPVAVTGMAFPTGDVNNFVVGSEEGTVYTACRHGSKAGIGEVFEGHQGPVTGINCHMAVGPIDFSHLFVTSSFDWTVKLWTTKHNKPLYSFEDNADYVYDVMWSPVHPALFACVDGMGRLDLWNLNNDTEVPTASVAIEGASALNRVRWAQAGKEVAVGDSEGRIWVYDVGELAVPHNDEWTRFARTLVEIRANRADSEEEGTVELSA

Row | Binder | binding result [1] | binding result [2]
1 | p68 RNA helicase (endogenous, in SW480 cell extracts) (enzyme, Endogenous protein in lysates of SW480 cells; also called Human p68) MSGYSSDRDRGRDRGFGAPRFGGSRAGPLSGKKFGNPGEKLVKKKWNLDELPKFEKNFYQEHPDLARRTAQEVETYRRSKEITVRGHNCPKPVLNFYEANFPANVMDVIARQNFTEPTAIQAQGWPVALSGLDMVGVAQTGSGKTLSYLLPAIVHINHQPFLERGDGPICLVLAPTRELAQQVQQVAAEYCRACRLKSTCIYGGAPKGPQIRDLERGVEICIATPGRLIDFLECGKTNLRRTTYLVLDEADRMLDMGFEPQIRKIVDQIRPDRQTLMWSATWPKEVRQLAEDFLKDYIHINIGALELSANHNILQIVDVCHDVEKDEKLIRLMEEIMSEKENKTIVFVETKRRCDELTRKMRRDGWPAMGIHGDKSQQERDWVLNEFKHGKAPILIATDVASRGLDVEDVKFVINYDYPNSSEDYIHRIGRTARSTKTGTAYTFFTPNNIKQVSDLISVLREANQAINPKLLQLVEDRGSGRSRGRGGMKDDRRDRYSAGKRGGFNTFRDRENYDRGYSSLLKRDFGAKTQNGVYSAANYTNGSFGSNFVSAGIQTSFRTGNPTGTYQNGYDSTQQYGSNVPNMHNGMNQQAYAYPATAAAPMIGYPMPTGYSQ | no binding | no binding
2 | HA-tagged wild-type p68 (HA-p68), immunopurified from SW480 cell lysates (enzyme, One construct, purified from SW480 cells either with or without scratch-wound treatment; also called HA-p68 WT; WT; not shown: hemagglutinin (HA) tag from the pHM6 vector) MSGYSSDRDRGRDRGFGAPRFGGSRAGPLSGKKFGNPGEKLVKKKWNLDELPKFEKNFYQEHPDLARRTAQEVETYRRSKEITVRGHNCPKPVLNFYEANFPANVMDVIARQNFTEPTAIQAQGWPVALSGLDMVGVAQTGSGKTLSYLLPAIVHINHQPFLERGDGPICLVLAPTRELAQQVQQVAAEYCRACRLKSTCIYGGAPKGPQIRDLERGVEICIATPGRLIDFLECGKTNLRRTTYLVLDEADRMLDMGFEPQIRKIVDQIRPDRQTLMWSATWPKEVRQLAEDFLKDYIHINIGALELSANHNILQIVDVCHDVEKDEKLIRLMEEIMSEKENKTIVFVETKRRCDELTRKMRRDGWPAMGIHGDKSQQERDWVLNEFKHGKAPILIATDVASRGLDVEDVKFVINYDYPNSSEDYIHRIGRTARSTKTGTAYTFFTPNNIKQVSDLISVLREANQAINPKLLQLVEDRGSGRSRGRGGMKDDRRDRYSAGKRGGFNTFRDRENYDRGYSSLLKRDFGAKTQNGVYSAANYTNGSFGSNFVSAGIQTSFRTGNPTGTYQNGYDSTQQYGSNVPNMHNGMNQQAYAYPATAAAPMIGYPMPTGYSQ | no binding | no binding
